Here are results for 19 molecules from US20230357387A1 (published 2023).

The target of experiment [1] is T1, human ZIP12 extracellular domain expressed as a GST fusion protein (UniProt Q504Y0 1-202). In words: SPR; replicate 1.
Experiment [2] deals with T1, human ZIP12 extracellular domain …. The experiment in a line: SPR; replicate 2.
Experiment [3] shares this target. The experiment in a line: ELISA. Background: An ELISA detects its analyte on a solid surface through an enzyme-linked reagent.
Experiment [4] concerns the target human ZIP12 on human ZIP12 expressing transfectant cells (UniProt Q504Y0 1-691). In words: flow cytometry. (In general: A flow cytometer gives signals particle by particle.)
Experiment [5] has as its target T1, human ZIP12 extracellular domain …. In words: SPR; replicate 1. The source holds these as a separate data set. (In general: Surface plasmon resonance follows binding to a sensor surface in real time, without labels.)
The target is the same in experiment [6]. The experiment in a line: SPR; replicate 2. The source holds these as a separate data set.

B1: 63A11_H2/_L0 (antibody)
chain 1: not shown
chain 2: DIVMTQSPDSLAVSLGERATINCRASKSVSTSGYSYMHWYQQKPGQPPKLLIYLASNLESGVPDRFSGSGSGTDFTLTISSLQAEDVAVYYCQHSRELPLTFGGGTKVEIKRTVAAPSVFIFPPSDEQLKSGTASVVCLLNNFYPREAKVQWKVDNALQSGNSQESVTEQDSKDSTYSLSSTLTLSKADYEKHKVYACEVTHQGLSSPVTKSFNRGEC
As a reminder, the Kd is the constant that tells how readily two partners part at equilibrium. A low value points to higher affinity. With B1, the values for the Kd in experiment [1] and in experiment [2] were 2.1 nM and 2.04 nM, respectively.

B2: 63A11 H3/L1 (antibody)
chain 1: not shown
chain 2: DIVLTQSPDSLAVSLGERATINCRASKSVSTSGYSYMHWYQQKPGQPPKLLIYLASNLESGVPDRFSGSGSGTDFTLTISSLQAEDVAVYYCQHSRELPLTFGGGTKVEIKRTVAAPSVFIFPPSDEQLKSGTASVVCLLNNFYPREAKVQWKVDNALQSGNSQESVTEQDSKDSTYSLSSTLTLSKADYEKHKVYACEVTHQGLSSPVTKSFNRGEC
One may read the EC50 as the concentration that produces a half-maximal response. On to B2, for which the EC50 in experiment [3] worked out at 0.0019 µg/mL; in experiment [4], 0.5 µg/mL.

B3: 63A11 H0/L0 (antibody)
chain 1: not shown
chain 2: DIVMTQSPDSLAVSLGERATINCRASKSVSTSGYSYMHWYQQKPGQPPKLLIYLASNLESGVPDRFSGSGSGTDFTLTISSLQAEDVAVYYCQHSRELPLTFGGGTKVEIKRTVAAPSVFIFPPSDEQLKSGTASVVCLLNNFYPREAKVQWKVDNALQSGNSQESVTEQDSKDSTYSLSSTLTLSKADYEKHKVYACEVTHQGLSSPVTKSFNRGEC
B3: the values for the EC50 in experiment [3] and in experiment [4] were 0.0018 µg/mL and 0.778 µg/mL, respectively.

B4: 63A11 H2/L1 (antibody)
chain 1: not shown
chain 2: DIVLTQSPDSLAVSLGERATINCRASKSVSTSGYSYMHWYQQKPGQPPKLLIYLASNLESGVPDRFSGSGSGTDFTLTISSLQAEDVAVYYCQHSRELPLTFGGGTKVEIKRTVAAPSVFIFPPSDEQLKSGTASVVCLLNNFYPREAKVQWKVDNALQSGNSQESVTEQDSKDSTYSLSSTLTLSKADYEKHKVYACEVTHQGLSSPVTKSFNRGEC
For the molecule B4, the EC50 turned out to be 0.0016 µg/mL in experiment [3] and 0.586 µg/mL in experiment [4].

B5: 63A11_H0/_L1 (antibody)
chain 1: not shown
chain 2: DIVLTQSPDSLAVSLGERATINCRASKSVSTSGYSYMHWYQQKPGQPPKLLIYLASNLESGVPDRFSGSGSGTDFTLTISSLQAEDVAVYYCQHSRELPLTFGGGTKVEIKRTVAAPSVFIFPPSDEQLKSGTASVVCLLNNFYPREAKVQWKVDNALQSGNSQESVTEQDSKDSTYSLSSTLTLSKADYEKHKVYACEVTHQGLSSPVTKSFNRGEC
For the molecule B5, the values for the Kd in experiment [1] and in experiment [2] were 0.888 nM and 0.889 nM, respectively.

B6: 63A11 H1/L0 (antibody)
chain 1: not shown
chain 2: DIVMTQSPDSLAVSLGERATINCRASKSVSTSGYSYMHWYQQKPGQPPKLLIYLASNLESGVPDRFSGSGSGTDFTLTISSLQAEDVAVYYCQHSRELPLTFGGGTKVEIKRTVAAPSVFIFPPSDEQLKSGTASVVCLLNNFYPREAKVQWKVDNALQSGNSQESVTEQDSKDSTYSLSSTLTLSKADYEKHKVYACEVTHQGLSSPVTKSFNRGEC
On to B6, for which the EC50 is 0.0018 µg/mL in experiment [3] and 0.508 µg/mL in experiment [4].

B7: 63A11_H1/_L0 (antibody)
chain 1: not shown
chain 2: DIVMTQSPDSLAVSLGERATINCRASKSVSTSGYSYMHWYQQKPGQPPKLLIYLASNLESGVPDRFSGSGSGTDFTLTISSLQAEDVAVYYCQHSRELPLTFGGGTKVEIKRTVAAPSVFIFPPSDEQLKSGTASVVCLLNNFYPREAKVQWKVDNALQSGNSQESVTEQDSKDSTYSLSSTLTLSKADYEKHKVYACEVTHQGLSSPVTKSFNRGEC
B7: the Kd in experiment [1] is 1.32 nM; in experiment [2], 1.62 nM.

B8: 63A11 H0/L1 (antibody)
chain 1: not shown
chain 2: DIVLTQSPDSLAVSLGERATINCRASKSVSTSGYSYMHWYQQKPGQPPKLLIYLASNLESGVPDRFSGSGSGTDFTLTISSLQAEDVAVYYCQHSRELPLTFGGGTKVEIKRTVAAPSVFIFPPSDEQLKSGTASVVCLLNNFYPREAKVQWKVDNALQSGNSQESVTEQDSKDSTYSLSSTLTLSKADYEKHKVYACEVTHQGLSSPVTKSFNRGEC
For B8, the EC50 in experiment [3] came to 0.0016 µg/mL; in experiment [4] it was 0.338 µg/mL.

B9: 63A11_H2/_L1 (antibody)
chain 1: not shown
chain 2: DIVLTQSPDSLAVSLGERATINCRASKSVSTSGYSYMHWYQQKPGQPPKLLIYLASNLESGVPDRFSGSGSGTDFTLTISSLQAEDVAVYYCQHSRELPLTFGGGTKVEIKRTVAAPSVFIFPPSDEQLKSGTASVVCLLNNFYPREAKVQWKVDNALQSGNSQESVTEQDSKDSTYSLSSTLTLSKADYEKHKVYACEVTHQGLSSPVTKSFNRGEC
For B9, the values for the Kd in experiment [1] and in experiment [2] were 0.97 nM and 1.14 nM, respectively.

B10: 51B12H0L1 (antibody)
chain 1: not shown
chain 2: DIVLTQSPDSLAVSLGERATINCRASKSVSTSGYSYMHWYQQKPGQPPKLLIYLASNLESGVPDRFSGSGSGTDFTLTISSLQAEDVAVYYCQHSREVPYTFGGGTKVEIKRTVAAPSVFIFPPSDEQLKSGTASVVCLLNNFYPREAKVQWKVDNALQSGNSQESVTEQDSKDSTYSLSSTLTLSKADYEKHKVYACEVTHQGLSSPVTKSFNRGEC
For the molecule B10, the Kd in experiment [5] was 4.17 nM; in experiment [6], 1.83 nM.

B11: *51B12 H0L2 (antibody)
chain 1: not shown
chain 2: DIVMTQSPDSLAVSLGERATINCRASKSVSTSGYSYMHWYQQKPGQPPKFLIYLASNLESGVPDRFSGSGSGTDFTLTISSLQAEDVAVYYCQHSREVPYTFGGGTKVEIKRTVAAPSVFIFPPSDEQLKSGTASVVCLLNNFYPREAKVQWKVDNALQSGNSQESVTEQDSKDSTYSLSSTLTLSKADYEKHKVYACEVTHQGLSSPVTKSFNRGEC
With B11, the Kd in experiment [5] amounted to 0.706 nM; in experiment [6], 2.16 nM.

B12: 63A11_H1/_H1 (antibody)
chain 1: not shown
chain 2: DIVLTQSPDSLAVSLGERATINCRASKSVSTSGYSYMHWYQQKPGQPPKLLIYLASNLESGVPDRFSGSGSGTDFTLTISSLQAEDVAVYYCQHSRELPLTFGGGTKVEIKRTVAAPSVFIFPPSDEQLKSGTASVVCLLNNFYPREAKVQWKVDNALQSGNSQESVTEQDSKDSTYSLSSTLTLSKADYEKHKVYACEVTHQGLSSPVTKSFNRGEC
As for B12, the Kd in experiment [1] was found to be 1.82 nM; in experiment [2] it was 1.96 nM.

B13: 63A11 H2/L0 (antibody)
chain 1: not shown
chain 2: DIVMTQSPDSLAVSLGERATINCRASKSVSTSGYSYMHWYQQKPGQPPKLLIYLASNLESGVPDRFSGSGSGTDFTLTISSLQAEDVAVYYCQHSRELPLTFGGGTKVEIKRTVAAPSVFIFPPSDEQLKSGTASVVCLLNNFYPREAKVQWKVDNALQSGNSQESVTEQDSKDSTYSLSSTLTLSKADYEKHKVYACEVTHQGLSSPVTKSFNRGEC
As for B13, the EC50 in experiment [3] is 0.0018 µg/mL; in experiment [4], 0.411 µg/mL.

B14: 63A11_H0/_L0 (antibody)
chain 1: not shown
chain 2: DIVMTQSPDSLAVSLGERATINCRASKSVSTSGYSYMHWYQQKPGQPPKLLIYLASNLESGVPDRFSGSGSGTDFTLTISSLQAEDVAVYYCQHSRELPLTFGGGTKVEIKRTVAAPSVFIFPPSDEQLKSGTASVVCLLNNFYPREAKVQWKVDNALQSGNSQESVTEQDSKDSTYSLSSTLTLSKADYEKHKVYACEVTHQGLSSPVTKSFNRGEC
As for B14, the Kd in experiment [1] turned out to be 2.38 nM; in experiment [2], 1.95 nM.

B15: 63A11_H3/_L1 (antibody)
chain 1: not shown
chain 2: DIVLTQSPDSLAVSLGERATINCRASKSVSTSGYSYMHWYQQKPGQPPKLLIYLASNLESGVPDRFSGSGSGTDFTLTISSLQAEDVAVYYCQHSRELPLTFGGGTKVEIKRTVAAPSVFIFPPSDEQLKSGTASVVCLLNNFYPREAKVQWKVDNALQSGNSQESVTEQDSKDSTYSLSSTLTLSKADYEKHKVYACEVTHQGLSSPVTKSFNRGEC
Take B15: the Kd in experiment [1] amounted to 1.28 nM; in experiment [2], 1.41 nM.

B16: 63A11 H1/L1 (antibody)
chain 1: not shown
chain 2: DIVLTQSPDSLAVSLGERATINCRASKSVSTSGYSYMHWYQQKPGQPPKLLIYLASNLESGVPDRFSGSGSGTDFTLTISSLQAEDVAVYYCQHSRELPLTFGGGTKVEIKRTVAAPSVFIFPPSDEQLKSGTASVVCLLNNFYPREAKVQWKVDNALQSGNSQESVTEQDSKDSTYSLSSTLTLSKADYEKHKVYACEVTHQGLSSPVTKSFNRGEC
On to B16, for which the EC50 in experiment [3] amounted to 0.0015 µg/mL; in experiment [4], 0.515 µg/mL.

B17: 63A11 H3/L0 (antibody)
chain 1: not shown
chain 2: DIVMTQSPDSLAVSLGERATINCRASKSVSTSGYSYMHWYQQKPGQPPKLLIYLASNLESGVPDRFSGSGSGTDFTLTISSLQAEDVAVYYCQHSRELPLTFGGGTKVEIKRTVAAPSVFIFPPSDEQLKSGTASVVCLLNNFYPREAKVQWKVDNALQSGNSQESVTEQDSKDSTYSLSSTLTLSKADYEKHKVYACEVTHQGLSSPVTKSFNRGEC
As to B17, the EC50 in experiment [3] was 0.002 µg/mL; in experiment [4], 0.583 µg/mL.

B18: 63A11_H3/_L0 (antibody)
chain 1: not shown
chain 2: DIVMTQSPDSLAVSLGERATINCRASKSVSTSGYSYMHWYQQKPGQPPKLLIYLASNLESGVPDRFSGSGSGTDFTLTISSLQAEDVAVYYCQHSRELPLTFGGGTKVEIKRTVAAPSVFIFPPSDEQLKSGTASVVCLLNNFYPREAKVQWKVDNALQSGNSQESVTEQDSKDSTYSLSSTLTLSKADYEKHKVYACEVTHQGLSSPVTKSFNRGEC
With B18, the Kd was 1.23 nM in experiment [1] and 1.62 nM in experiment [2].

B19: 63A11 parental antibody (antibody, V domains shown)
VH: EVQLVESGGGLVKPGGSRKLSCAASGFTFSDHGMHWVRQAPEKGLEWVAYISSGSSAIFYADTVKGRFTMSRDNAKNTLFLQMTSLRSEDTAMYFCARWTNLYAMDYWGQGTSVTVSS
VL: DIVLTQSPASLAVSLGQRATISCRASKSVSTSGYSYMHWYQQKPGQPPKLLIYLASNLESGVPARFSGSGSGTDFTLNIHPVEEEDAATYYCQHSRELPLTFGAGTKLELKR
For B19, the EC50 in experiment [3] is 0.0017 µg/mL; in experiment [4], 0.233 µg/mL. Moreover, the Kd in experiment [1] and in experiment [2] was 0.757 nM throughout.
